{
  "source": "the supplement of paper PMC10567573",
  "parents": {"B1": {"name": "RIPK4 (parent)", "chain": "VIDLFDEQGLSALHLAAQGRHAQT"}},
  "data": [
    {"variants_of": "B1", "assay": "protein stability index of a GFP-peptide fusion (GPS, HEK-293T) (PSI 1-6); higher = more stable", "details": "c terminus: a fixed tail appended", "values": [
      {"variant": "VIDLFDEIGLSALHLAAQGRHAQT", "protein stability index": 1.46},
      {"variant": "VIDLFDEKGLSALHLAAQGRHAQT", "protein stability index": 2.58},
      {"variant": "VIDLFDEDGLSALHLAAQGRHAQT", "protein stability index": 3.07},
      {"variant": "VIDLFDELGLSALHLAAQGRHAQT", "protein stability index": 1.66},
      {"variant": "VIDLFDECGLSALHLAAQGRHAQT", "protein stability index": 1.76},
      {"variant": "VIDLFDEWGLSALHLAAQGRHAQT", "protein stability index": 1.45},
      {"variant": "VIDLFDERGLSALHLAAQGRHAQT", "protein stability index": 2.82},
      {"variant": "VIDLFDEFGLSALHLAAQGRHAQT", "protein stability index": 2.05},
      {"variant": "VIDLFDEHGLSALHLAAQGRHAQT", "protein stability index": 2.61},
      {"variant": "VIDLFDEYGLSALHLAAQGRHAQT", "protein stability index": 2.25},
      {"variant": "VIDLFDESGLSALHLAAQGRHAQT", "protein stability index": 2.65},
      {"variant": "VIDLFDEVGLSALHLAAQGRHAQT", "protein stability index": 2.53},
      {"variant": "VIDLFDENGLSALHLAAQGRHAQT", "protein stability index": 2.86},
      {"variant": "VIDLFDEPGLSALHLAAQGRHAQT", "protein stability index": 3.22},
      {"variant": "VIDLFDEEGLSALHLAAQGRHAQT", "protein stability index": 2.98},
      {"variant": "VIDLFDETGLSALHLAAQGRHAQT", "protein stability index": 2.65},
      {"variant": "VIDLFDEAGLSALHLAAQGRHAQT", "protein stability index": 2.73},
      {"variant": "VIDLFDEGGLSALHLAAQGRHAQT", "protein stability index": 3.12},
      {"variant": "VIDLFDEMGLSALHLAAQGRHAQT", "protein stability index": 2.08},
      {"variant": "VIDLFDEQGGSALHLAAQGRHAQT", "protein stability index": 3.6},
      {"variant": "VIDLFDEQGCSALHLAAQGRHAQT", "protein stability index": 3.2},
      {"variant": "VIDLFDEQGFSALHLAAQGRHAQT", "protein stability index": 2.83},
      {"variant": "VIDLFDEQGVSALHLAAQGRHAQT", "protein stability index": 2.97},
      {"variant": "VIDLFDEQGTSALHLAAQGRHAQT", "protein stability index": 3.08},
      {"variant": "VIDLFDEQGYSALHLAAQGRHAQT", "protein stability index": 2.75},
      {"variant": "VIDLFDEQGSSALHLAAQGRHAQT", "protein stability index": 3.76},
      {"variant": "VIDLFDEQGRSALHLAAQGRHAQT", "protein stability index": 3.23},
      {"variant": "VIDLFDEQGESALHLAAQGRHAQT", "protein stability index": 4.48},
      {"variant": "VIDLFDEQGMSALHLAAQGRHAQT", "protein stability index": 3.04},
      {"variant": "VIDLFDEQGDSALHLAAQGRHAQT", "protein stability index": 3.93},
      {"variant": "VIDLFDEQGQSALHLAAQGRHAQT", "protein stability index": 3.25},
      {"variant": "VIDLFDEQGWSALHLAAQGRHAQT", "protein stability index": 2.23},
      {"variant": "VIDLFDEQGASALHLAAQGRHAQT", "protein stability index": 3.33},
      {"variant": "VIDLFDEQGPSALHLAAQGRHAQT", "protein stability index": 3.63},
      {"variant": "VIDLFDEQGISALHLAAQGRHAQT", "protein stability index": 2.67},
      {"variant": "VIDLFDEQGHSALHLAAQGRHAQT", "protein stability index": 3.19},
      {"variant": "VIDLFDEQGKSALHLAAQGRHAQT", "protein stability index": 3.31},
      {"variant": "VIDLFDEQGNSALHLAAQGRHAQT", "protein stability index": 3.83},
      {"variant": "VIDLFDWQGLSALHLAAQGRHAQT", "protein stability index": 1.98},
      {"variant": "VIDLFDNQGLSALHLAAQGRHAQT", "protein stability index": 2.36},
      {"variant": "VIDLFDAQGLSALHLAAQGRHAQT", "protein stability index": 2.23},
      {"variant": "VIDLFDYQGLSALHLAAQGRHAQT", "protein stability index": 1.48},
      {"variant": "VIDLFDMQGLSALHLAAQGRHAQT", "protein stability index": 1.1},
      {"variant": "VIDLFDLQGLSALHLAAQGRHAQT", "protein stability index": 1.92},
      {"variant": "VIDLFDQQGLSALHLAAQGRHAQT", "protein stability index": 2.35},
      {"variant": "VIDLFDVQGLSALHLAAQGRHAQT", "protein stability index": 2.32},
      {"variant": "VIDLFDTQGLSALHLAAQGRHAQT", "protein stability index": 2.45},
      {"variant": "VIDLFDGQGLSALHLAAQGRHAQT", "protein stability index": 2.01},
      {"variant": "VIDLFDSQGLSALHLAAQGRHAQT", "protein stability index": 2.73},
      {"variant": "VIDLFDPQGLSALHLAAQGRHAQT", "protein stability index": 2},
      {"variant": "VIDLFDRQGLSALHLAAQGRHAQT", "protein stability index": 1.98},
      {"variant": "VIDLFDIQGLSALHLAAQGRHAQT", "protein stability index": 2.2},
      {"variant": "VIDLFDKQGLSALHLAAQGRHAQT", "protein stability index": 1.86},
      {"variant": "VIDLFDCQGLSALHLAAQGRHAQT", "protein stability index": 1.73},
      {"variant": "VIDLFDHQGLSALHLAAQGRHAQT", "protein stability index": 2.17},
      {"variant": "VIDLFDFQGLSALHLAAQGRHAQT", "protein stability index": 1.68},
      {"variant": "VIDLFDDQGLSALHLAAQGRHAQT", "protein stability index": 2.73},
      {"variant": "VIDLWDEQGLSALHLAAQGRHAQT", "protein stability index": 2.44},
      {"variant": "VIDLVDEQGLSALHLAAQGRHAQT", "protein stability index": 3.39},
      {"variant": "VIDLMDEQGLSALHLAAQGRHAQT", "protein stability index": 2.78},
      {"variant": "VIDLNDEQGLSALHLAAQGRHAQT", "protein stability index": 2.98},
      {"variant": "VIDLLDEQGLSALHLAAQGRHAQT", "protein stability index": 2.95},
      {"variant": "VIDLGDEQGLSALHLAAQGRHAQT", "protein stability index": 3.86},
      {"variant": "VIDLSDEQGLSALHLAAQGRHAQT", "protein stability index": 3.67},
      {"variant": "VIDLRDEQGLSALHLAAQGRHAQT", "protein stability index": 3.64},
      {"variant": "VIDLTDEQGLSALHLAAQGRHAQT", "protein stability index": 3.94},
      {"variant": "VIDLPDEQGLSALHLAAQGRHAQT", "protein stability index": 4.81},
      {"variant": "VIDLIDEQGLSALHLAAQGRHAQT", "protein stability index": 2.89},
      {"variant": "VIDLYDEQGLSALHLAAQGRHAQT", "protein stability index": 3.22},
      {"variant": "VIDLKDEQGLSALHLAAQGRHAQT", "protein stability index": 4.16},
      {"variant": "VIDLQDEQGLSALHLAAQGRHAQT", "protein stability index": 3.91},
      {"variant": "VIDLHDEQGLSALHLAAQGRHAQT", "protein stability index": 3.9},
      {"variant": "VIDLFDEQGLSALHAAAQGRHAQT", "protein stability index": 3.31},
      {"variant": "VIDLFDEQGLSALHDAAQGRHAQT", "protein stability index": 3.39},
      {"variant": "VIDLFDEQGLSALHCAAQGRHAQT", "protein stability index": 2.74},
      {"variant": "VIDLFDEQGLSALCLAAQGRHAQT", "protein stability index": 2.1},
      {"variant": "VIDLFDEQGLSALWLAAQGRHAQT", "protein stability index": 1.9},
      {"variant": "VIDLFDEQGLSALELAAQGRHAQT", "protein stability index": 4.04},
      {"variant": "VIDLFDEQGLSALDLAAQGRHAQT", "protein stability index": 3.6},
      {"variant": "VIDLFDEQGLSALMLAAQGRHAQT", "protein stability index": 1.89},
      {"variant": "VIDLFDEQGLSALTLAAQGRHAQT", "protein stability index": 2.95},
      {"variant": "VIDLFDEQGLSALLLAAQGRHAQT", "protein stability index": 2.33},
      {"variant": "VIDLFDEQGLSALFLAAQGRHAQT", "protein stability index": 1.82},
      {"variant": "VIDLFDEQGLSALALAAQGRHAQT", "protein stability index": 2.49},
      {"variant": "VIDLFDEQGLSALGLAAQGRHAQT", "protein stability index": 2.6},
      {"variant": "VIDLFDEQGLSALNLAAQGRHAQT", "protein stability index": 3.5},
      {"variant": "VIDLFDEQGLSALILAAQGRHAQT", "protein stability index": 1.88},
      {"variant": "VIDLFDEQGLSALVLAAQGRHAQT", "protein stability index": 2.28},
      {"variant": "VIDLFDEQGLSALPLAAQGRHAQT", "protein stability index": 3.54},
      {"variant": "VIDLFDEQGLSALSLAAQGRHAQT", "protein stability index": 2.55},
      {"variant": "VIDLFDEQGLSALKLAAQGRHAQT", "protein stability index": 2.8},
      {"variant": "VIDLFDEQGLSALRLAAQGRHAQT", "protein stability index": 3.25},
      {"variant": "VIDLFDEQGLSALQLAAQGRHAQT", "protein stability index": 3.2},
      {"variant": "VIDLFDEQGLSALYLAAQGRHAQT", "protein stability index": 2.09}
    ]}
  ]
}
